Assay results reported in ChEMBL document CHEMBL1250451, “Mechanistic insights into a Ca2+-dependent family of alpha-mannosidases in a human gut symbiont” (Nat Chem Biol, 2010).
Where a chain is given by its changes, count along the chain named. Names and notes keep the numbering of the source.

Columns and labels:
Type in all cases: protein assay
[1] = substrate: O=[N+]([O-])c1ccc(O[C@H]2O[C@H](CO)[C@@H](O)[C@H](O)[C@@H]2O)cc1; assay: (§1) Activity of Bacteroides thetaiotaomicron GH92 alpha-mannosidase 3990 D644A mutant assessed as as mannose release after 16 hrs by HPLC relative to wild type enzyme
[2] = substrate: OC[C@H]1O[C@H](O[C@H]2[C@@H](O)[C@H](O)[C@@H](CO)O[C@@H]2O)[C@@H](O)[C@@H](O)[C@@H]1O; assay: as §1
[3] = substrate: O=[N+]([O-])c1ccc(O[C@H]2O[C@H](CO)[C@@H](O)[C@H](O)[C@@H]2O)c([N+](=O)[O-])c1; assay: (§2) Ratio of Kcat to Km for Bacteroides thetaiotaomicron GH92 alpha-mannosidase 3990 D644A mutant assessed as as mannose release after 16 hrs by HPLC relative to wild type enzyme
[4] = substrate: O=[N+]([O-])c1ccc(O[C@H]2O[C@H](CO)[C@@H](O)[C@H](O)[C@@H]2O)cc1; assay: as §2
[5] = substrate: OC[C@H]1O[C@H](O[C@H]2[C@@H](O)[C@H](O)[C@@H](CO)O[C@@H]2O)[C@@H](O)[C@@H](O)[C@@H]1O; assay: as §2
[6] = substrate: O=[N+]([O-])c1ccc(O[C@H]2O[C@H](CO)[C@@H](O)[C@H](O)[C@@H]2O)cc1; assay: (§3) Activity of Bacteroides thetaiotaomicron GH92 alpha-mannosidase 3990 E533A mutant assessed as as mannose release after 16 hrs by HPLC relative to wild type enzyme
[7] = substrate: OC[C@H]1O[C@H](O[C@H]2[C@@H](O)[C@H](O)[C@@H](CO)O[C@@H]2O)[C@@H](O)[C@@H](O)[C@@H]1O; assay: as §3
[8] = substrate: O=[N+]([O-])c1ccc(O[C@H]2O[C@H](CO)[C@@H](O)[C@H](O)[C@@H]2O)c([N+](=O)[O-])c1; assay: (§4) Ratio of Kcat to Km for Bacteroides thetaiotaomicron GH92 alpha-mannosidase 3990 E533A mutant assessed as as mannose release after 16 hrs by HPLC relative to wild type enzyme
[9] = substrate: O=[N+]([O-])c1ccc(O[C@H]2O[C@H](CO)[C@@H](O)[C@H](O)[C@@H]2O)cc1; assay: as §4
[10] = substrate: OC[C@H]1O[C@H](O[C@H]2[C@@H](O)[C@H](O)[C@@H](CO)O[C@@H]2O)[C@@H](O)[C@@H](O)[C@@H]1O; assay: as §4
[11] = substrate: O=[N+]([O-])c1ccc(O[C@H]2O[C@H](CO)[C@@H](O)[C@H](O)[C@@H]2O)cc1; assay: (§5) Activity of Bacteroides thetaiotaomicron GH92 alpha-mannosidase 3990 E585A mutant assessed as as mannose release after 16 hrs by HPLC relative to wild type enzyme
[12] = substrate: OC[C@H]1O[C@H](O[C@H]2[C@@H](O)[C@H](O)[C@@H](CO)O[C@@H]2O)[C@@H](O)[C@@H](O)[C@@H]1O; assay: as §5
[13] = substrate: O=[N+]([O-])c1ccc(O[C@H]2O[C@H](CO)[C@@H](O)[C@H](O)[C@@H]2O)c([N+](=O)[O-])c1; assay: (§6) Ratio of Kcat to Km for Bacteroides thetaiotaomicron GH92 alpha-mannosidase 3990 E585A mutant assessed as as mannose release after 16 hrs by HPLC relative to wild type enzyme
[14] = substrate: O=[N+]([O-])c1ccc(O[C@H]2O[C@H](CO)[C@@H](O)[C@H](O)[C@@H]2O)cc1; assay: as §6
[15] = substrate: OC[C@H]1O[C@H](O[C@H]2[C@@H](O)[C@H](O)[C@@H](CO)O[C@@H]2O)[C@@H](O)[C@@H](O)[C@@H]1O; assay: as §6
[16] = substrate: O=[N+]([O-])c1ccc(O[C@H]2O[C@H](CO)[C@@H](O)[C@H](O)[C@@H]2O)cc1; assay: (§7) Activity of Bacteroides thetaiotaomicron GH92 alpha-mannosidase 3990 S86A mutant assessed as mannose release after 16 hrs by HPLC relative to wild type enzyme
[17] = substrate: OC[C@H]1O[C@H](O[C@H]2[C@@H](O)[C@H](O)[C@@H](CO)O[C@@H]2O)[C@@H](O)[C@@H](O)[C@@H]1O; assay: as §7
[18] = substrate: O=[N+]([O-])c1ccc(O[C@H]2O[C@H](CO)[C@@H](O)[C@H](O)[C@@H]2O)c([N+](=O)[O-])c1; assay: (§8) Ratio of Kcat to Km for Bacteroides thetaiotaomicron GH92 alpha-mannosidase 3990 S86A mutant assessed as mannose release after 16 hrs by HPLC relative to wild type enzyme
[19] = substrate: O=[N+]([O-])c1ccc(O[C@H]2O[C@H](CO)[C@@H](O)[C@H](O)[C@@H]2O)cc1; assay: as §8
[20] = substrate: OC[C@H]1O[C@H](O[C@H]2[C@@H](O)[C@H](O)[C@@H](CO)O[C@@H]2O)[C@@H](O)[C@@H](O)[C@@H]1O; assay: as §8
[21] = substrate: O=[N+]([O-])c1ccc(O[C@H]2O[C@H](CO)[C@@H](O)[C@H](O)[C@@H]2O)cc1; assay: (§9) Activity of Bacteroides thetaiotaomicron GH92 alpha-mannosidase 3990 D644N mutant assessed as as mannose release after 16 hrs by HPLC relative to wild type enzyme
[22] = substrate: OC[C@H]1O[C@H](O[C@H]2[C@@H](O)[C@H](O)[C@@H](CO)O[C@@H]2O)[C@@H](O)[C@@H](O)[C@@H]1O; assay: as §9
[23] = substrate: O=[N+]([O-])c1ccc(O[C@H]2O[C@H](CO)[C@@H](O)[C@H](O)[C@@H]2O)c([N+](=O)[O-])c1; assay: (§10) Ratio of Kcat to Km for Bacteroides thetaiotaomicron GH92 alpha-mannosidase 3990 D644N mutant assessed as as mannose release after 16 hrs by HPLC relative to wild type enzyme
[24] = substrate: O=[N+]([O-])c1ccc(O[C@H]2O[C@H](CO)[C@@H](O)[C@H](O)[C@@H]2O)cc1; assay: as §10
[25] = substrate: OC[C@H]1O[C@H](O[C@H]2[C@@H](O)[C@H](O)[C@@H](CO)O[C@@H]2O)[C@@H](O)[C@@H](O)[C@@H]1O; assay: as §10
[26] = substrate: O=[N+]([O-])c1ccc(O[C@H]2O[C@H](CO)[C@@H](O)[C@H](O)[C@@H]2O)cc1; assay: (§11) Activity of Bacteroides thetaiotaomicron GH92 alpha-mannosidase 3990 E533Q mutant assessed as as mannose release after 16 hrs by HPLC relative to wild type enzyme
[27] = substrate: OC[C@H]1O[C@H](O[C@H]2[C@@H](O)[C@H](O)[C@@H](CO)O[C@@H]2O)[C@@H](O)[C@@H](O)[C@@H]1O; assay: as §11
[28] = substrate: O=[N+]([O-])c1ccc(O[C@H]2O[C@H](CO)[C@@H](O)[C@H](O)[C@@H]2O)c([N+](=O)[O-])c1; assay: (§12) Ratio of Kcat to Km for Bacteroides thetaiotaomicron GH92 alpha-mannosidase 3990 E533Q mutant assessed as as mannose release after 16 hrs by HPLC relative to wild type enzyme
[29] = substrate: O=[N+]([O-])c1ccc(O[C@H]2O[C@H](CO)[C@@H](O)[C@H](O)[C@@H]2O)cc1; assay: as §12
[30] = substrate: OC[C@H]1O[C@H](O[C@H]2[C@@H](O)[C@H](O)[C@@H](CO)O[C@@H]2O)[C@@H](O)[C@@H](O)[C@@H]1O; assay: as §12

B1: Alpha-1,2-mannosidase (BT_3990) (Bacteroides thetaiotaomicron), Q8A0N1 D644A (protein)
chain: MKRLLLIACILNCTLLSQAKDWTQYVNPLMGSQSTFELSTGNTYPAIARPWGMNFWTPQTGKMGDGWQYTYTANKIRGFKQTHQPSPWINDYGQFSIMPIVGQPVFDEEKRASWFAHKGEVATPYYYKVYLAEHDIVTEMTPTERAVLFRFTFPENDHSYVVVDAFDKGSYIKIIPEENKIIGYTTRNSGGVPENFKNYFIIEFDKPFTYKATVENGNLQENVAEQTTDHAGAIIGFKTRKGEQVNARIASSFISFEQAAANMNELGKDNIEQLAQKGKDAWNQVLGKIEVEGGNLDQYRTFYSCLYRSLLFPRKFYELDANGQPIHYSPYNGQVLPGYMFTDTGFWDTFRCLFPLLNLMYPSVNKEMQEGLINTYLESGFFPEWASPGHRGCMVGNNSASILVDAYMKGVKVDDIKTLYEGLIHGTENVHPEVSSTGRLGYEYYNKLGYVPYDVKINENAARTLEYAYDDWCIYRLAKELKRPKKEISLFAKRAMNYKNLFDKESKLMRGRNEDGTFQSPFSPLKWGDAFTEGNSWHYTWSVFHDPQGLIDLMGGKEMFVTMMDSVFAVPPIFDDSYYGQVIHEIREMTVMNMGNYAHGNQPIQHMIYLYDYAGQPWKAQYWLRQVMDRMYTPGPDGYCGDEANGQTSAWYVFSALGFYPVCPGTDEYVMGTPLFKKATLHFENGNSLVIDAPNNSTENFYIDSMSFNGADHTKNYLRHEDLFKGGTIKVDMSNRPNLNRGTKEEDMPYSFSKE
- Km [1]: Not Active
- kcat [1]: Not Active
- Km [2]: 620 µM
- kcat [2]: 0.000783 s⁻¹
- kcat/Km [3]: 0.0167 M⁻¹ s⁻¹
- kcat/Km [4]: Not Active
- kcat/Km [5]: 1.27 M⁻¹ s⁻¹

B2: Alpha-1,2-mannosidase (BT_3990) (Bacteroides thetaiotaomicron), Q8A0N1 E533A (protein)
chain: B1 chain with E533A, A644D
- Km [6]: 9300 µM
- kcat [6]: 0.00333 s⁻¹
- Km [7]: 1400 µM
- kcat [7]: 0.00433 s⁻¹
- kcat/Km [8]: 6000 M⁻¹ s⁻¹
- kcat/Km [9]: 0.35 M⁻¹ s⁻¹
- kcat/Km [10]: 3 M⁻¹ s⁻¹

B3: Alpha-1,2-mannosidase (BT_3990) (Bacteroides thetaiotaomicron), Q8A0N1 E585A (protein)
chain: B1 chain with E585A, A644D
- Km [11]: Not Active
- kcat [11]: Not Active
- Km [12]: 2300 µM
- kcat [12]: 0.00733 s⁻¹
- kcat/Km [13]: 9330 M⁻¹ s⁻¹
- kcat/Km [14]: 5.5 M⁻¹ s⁻¹
- kcat/Km [15]: 3.17 M⁻¹ s⁻¹

B4: Alpha-1,2-mannosidase (BT_3990) (Bacteroides thetaiotaomicron), Q8A0N1 S86A (protein)
chain: B1 chain with S86A, A644D
- Km [16]: 8500 µM
- kcat [16]: 0.00667 s⁻¹
- Km [17]: 3200 µM
- kcat [17]: 2 s⁻¹
- kcat/Km [18]: 51.7 M⁻¹ s⁻¹
- kcat/Km [19]: 0.783 M⁻¹ s⁻¹
- kcat/Km [20]: 6330 M⁻¹ s⁻¹

B5: Alpha-1,2-mannosidase (BT_3990) (Bacteroides thetaiotaomicron), Q8A0N1 D644N (protein)
chain: B1 chain with A644N
- Km [21]: Not Active
- kcat [21]: Not Active
- Km [22]: 720 µM
- kcat [22]: 0.000383 s⁻¹
- kcat/Km [23]: 0.567 M⁻¹ s⁻¹
- kcat/Km [24]: Not Active
- kcat/Km [25]: 0.533 M⁻¹ s⁻¹

B6: Alpha-1,2-mannosidase (BT_3990) (Bacteroides thetaiotaomicron), Q8A0N1 E533Q (protein)
chain: B1 chain with E533Q, A644D
- Km [26]: 10000 µM
- kcat [26]: 0.147 s⁻¹
- Km [27]: 960 µM
- kcat [27]: 0.000233 s⁻¹
- kcat/Km [28]: 10300 M⁻¹ s⁻¹
- kcat/Km [29]: 14.3 M⁻¹ s⁻¹
- kcat/Km [30]: 0.25 M⁻¹ s⁻¹
